Measured values: IntAct's records for PubMed 35512704

B1: Mothers against decapentaplegic homolog 4 (Homo sapiens), Q13485 (parent)
chain: MDNMSITNTPTSNDACLSIVHSLMCHRQGGESETFAKRAIESLVKKLKEKKDELDSLITAITTNGAHPSKCVTIQRTLDGRLQVAGRKGFPHVIYARLWRWPDLHKNELKHVKYCQYAFDLKCDSVCVNPYHYERVVSPGIDLSGLTLQSNAPSSMMVKDEYVHDFEGQPSLSTEGHSIQTIQHPPSNRASTETYSTPALLAPSESNATSTANFPNIPVASTSQPASILGGSHSEGLLQIASGPQPGQQQNGFTGQPATYHHNSTTTWTGSRTAPYTPNLPHHQNGHLQHHPPMPPHPGHYWPVHNELAFQPPISNHPAPEYWCSIAYFEMDVQVGETFKVPSSCPIVTVDGYVDPSGGDRFCLGQLSNVHRTEAIERARLHIGKGVQLECKGEGDVWVRCLSDHAVFVQSYYLDREAGRAPGDAVHKIYPSAYIKVFDLRQCHRQMQQQAATAQAAAAAQAAAVAGNIPGPGSVGGIAPAISLSAAAGIGVDDLRRLCILRMSFVKGWGPDYPRQSIKETPCWIEIHLHRALQLLDEVLHTMPIADPQPLD

Variants of: B1
Settings: with smad3_human SMAD3, P84022

Variant	effect of a mutation on the interaction
R361C	disrupting interaction strength

Variants of: B1
Settings: with agap2_human AGAP2, Q99490

Variant	effect of a mutation on the interaction
R361C	with no effect

Variants of: B1
Settings: with ajuba_human AJUBA

Variant	effect of a mutation on the interaction
R361C	with no effect

Variants of: B1
Settings: with akt1_human AKT1, P31749
Chain of akt1_human AKT1, P31749 (P31749 whole entry): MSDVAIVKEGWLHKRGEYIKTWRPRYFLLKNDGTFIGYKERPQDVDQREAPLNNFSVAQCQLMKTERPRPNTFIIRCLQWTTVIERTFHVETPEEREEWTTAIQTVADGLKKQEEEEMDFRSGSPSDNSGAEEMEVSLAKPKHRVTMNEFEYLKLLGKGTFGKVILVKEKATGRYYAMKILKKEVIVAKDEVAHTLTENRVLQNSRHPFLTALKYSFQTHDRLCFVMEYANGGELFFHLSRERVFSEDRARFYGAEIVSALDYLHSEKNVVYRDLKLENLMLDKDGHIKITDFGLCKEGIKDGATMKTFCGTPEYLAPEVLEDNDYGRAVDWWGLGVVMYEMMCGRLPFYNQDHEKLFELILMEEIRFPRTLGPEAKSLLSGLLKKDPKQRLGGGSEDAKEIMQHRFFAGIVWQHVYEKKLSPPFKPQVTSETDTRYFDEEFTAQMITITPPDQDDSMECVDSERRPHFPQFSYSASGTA

Variant	effect of a mutation on the interaction
R361C	with no effect

Variants of: B1
Settings: with akts1_human AKT1S1, Q96B36

Variant	effect of a mutation on the interaction
R361C	with no effect

Variants of: B1
Settings: with akt3_human AKT3, Q9Y243

Variant	effect of a mutation on the interaction
R361C	with no effect

Variants of: B1
Settings: with alk_human ALK

Variant	effect of a mutation on the interaction
R361C	with no effect

Variants of: B1
Settings: with aph1a_human APH1A

Variant	effect of a mutation on the interaction
R361C	with no effect

Variants of: B1
Settings: with arc1a_human ARPC1A

Variant	effect of a mutation on the interaction
R361C	with no effect

Variants of: B1
Settings: with asxl1_human ASXL1, Q8IXJ9
Chain of asxl1_human ASXL1, Q8IXJ9 (Q8IXJ9 whole entry): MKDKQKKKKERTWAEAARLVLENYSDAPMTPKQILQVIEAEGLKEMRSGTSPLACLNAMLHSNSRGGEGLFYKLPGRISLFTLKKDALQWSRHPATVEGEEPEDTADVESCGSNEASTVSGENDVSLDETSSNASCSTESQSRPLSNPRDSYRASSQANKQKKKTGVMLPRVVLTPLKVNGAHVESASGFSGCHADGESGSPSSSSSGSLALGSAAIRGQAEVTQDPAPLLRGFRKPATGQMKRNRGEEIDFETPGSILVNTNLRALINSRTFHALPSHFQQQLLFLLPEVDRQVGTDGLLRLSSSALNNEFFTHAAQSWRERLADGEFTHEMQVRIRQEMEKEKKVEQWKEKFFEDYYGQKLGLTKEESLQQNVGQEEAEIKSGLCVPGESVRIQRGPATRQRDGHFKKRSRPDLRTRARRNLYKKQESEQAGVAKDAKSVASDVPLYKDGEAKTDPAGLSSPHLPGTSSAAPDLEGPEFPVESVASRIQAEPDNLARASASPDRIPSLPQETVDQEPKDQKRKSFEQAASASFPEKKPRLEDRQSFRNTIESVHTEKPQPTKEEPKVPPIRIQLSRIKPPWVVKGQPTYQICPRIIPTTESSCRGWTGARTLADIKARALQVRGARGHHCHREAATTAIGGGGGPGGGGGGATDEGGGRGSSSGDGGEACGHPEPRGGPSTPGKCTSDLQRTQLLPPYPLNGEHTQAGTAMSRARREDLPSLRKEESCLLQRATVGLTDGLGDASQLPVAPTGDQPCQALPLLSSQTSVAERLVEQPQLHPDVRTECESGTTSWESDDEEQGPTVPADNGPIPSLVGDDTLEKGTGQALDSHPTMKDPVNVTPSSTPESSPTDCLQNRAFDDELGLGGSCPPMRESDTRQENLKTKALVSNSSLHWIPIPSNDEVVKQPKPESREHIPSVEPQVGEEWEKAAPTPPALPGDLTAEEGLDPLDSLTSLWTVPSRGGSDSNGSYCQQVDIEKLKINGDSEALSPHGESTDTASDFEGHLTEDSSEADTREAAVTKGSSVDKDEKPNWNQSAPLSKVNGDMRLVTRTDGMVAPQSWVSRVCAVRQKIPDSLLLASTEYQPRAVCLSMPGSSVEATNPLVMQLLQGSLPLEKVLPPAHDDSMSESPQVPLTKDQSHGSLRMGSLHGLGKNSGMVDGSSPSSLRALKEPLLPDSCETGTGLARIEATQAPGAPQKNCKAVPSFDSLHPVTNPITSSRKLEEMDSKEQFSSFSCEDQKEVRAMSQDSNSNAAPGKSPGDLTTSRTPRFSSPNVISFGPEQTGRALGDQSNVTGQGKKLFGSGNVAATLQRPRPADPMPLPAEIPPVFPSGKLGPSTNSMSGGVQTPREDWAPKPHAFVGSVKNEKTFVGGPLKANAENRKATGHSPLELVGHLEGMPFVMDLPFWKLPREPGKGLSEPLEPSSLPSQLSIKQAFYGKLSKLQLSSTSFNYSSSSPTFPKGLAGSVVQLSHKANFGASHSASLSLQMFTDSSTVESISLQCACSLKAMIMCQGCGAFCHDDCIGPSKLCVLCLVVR

Variant	effect of a mutation on the interaction
R361C	with no effect

Variants of: B1
Settings: with bakor_human ATG14, Q6ZNE5

Variant	effect of a mutation on the interaction
R361C	with no effect

Variants of: B1
Settings: with atpb_human ATP5F1B

Variant	effect of a mutation on the interaction
R361C	with no effect

Variants of: B1
Settings: with atrx_human ATRX

Variant	effect of a mutation on the interaction
R361C	with no effect

Variants of: B1
Settings: with aurkb_human AURKB

Variant	effect of a mutation on the interaction
R361C	with no effect

Variants of: B1
Settings: with ufo_human AXL

Variant	effect of a mutation on the interaction
R361C	with no effect

Variants of: B1
Settings: with za2g_human AZGP1, P25311

Variant	effect of a mutation on the interaction
R361C	with no effect

Variants of: B1
Settings: with b2mg_human B2M

Variant	effect of a mutation on the interaction
R361C	with no effect

Variants of: B1
Settings: with bap1_human BAP1, Q92560

Variant	effect of a mutation on the interaction
R361C	with no effect

Variants of: B1
Settings: with becn1_human BECN1, Q14457

Variant	effect of a mutation on the interaction
R361C	with no effect

Variants of: B1
Settings: with birc2_human BIRC2, Q13490
Chain of birc2_human BIRC2, Q13490 (Q13490 whole entry): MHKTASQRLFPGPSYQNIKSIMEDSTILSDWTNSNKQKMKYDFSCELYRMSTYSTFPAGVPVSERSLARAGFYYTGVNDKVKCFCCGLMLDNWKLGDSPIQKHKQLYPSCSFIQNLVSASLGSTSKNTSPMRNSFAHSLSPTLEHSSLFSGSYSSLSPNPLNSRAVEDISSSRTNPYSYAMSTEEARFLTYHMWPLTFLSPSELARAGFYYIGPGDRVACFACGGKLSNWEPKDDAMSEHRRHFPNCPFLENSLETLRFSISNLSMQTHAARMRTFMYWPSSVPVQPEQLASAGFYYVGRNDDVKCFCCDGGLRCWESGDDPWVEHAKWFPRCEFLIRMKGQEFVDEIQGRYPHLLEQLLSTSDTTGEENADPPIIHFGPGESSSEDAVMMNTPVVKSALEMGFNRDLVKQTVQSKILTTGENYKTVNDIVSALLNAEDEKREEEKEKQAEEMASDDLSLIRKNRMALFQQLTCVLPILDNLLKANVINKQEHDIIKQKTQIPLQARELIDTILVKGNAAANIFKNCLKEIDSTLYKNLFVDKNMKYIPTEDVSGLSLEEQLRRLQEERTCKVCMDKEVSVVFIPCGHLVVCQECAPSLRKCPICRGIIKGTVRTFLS

Variant	effect of a mutation on the interaction
R361C	with no effect

Variants of: B1
Settings: with braf_human BRAF

Variant	effect of a mutation on the interaction
R361C	with no effect

Variants of: B1
Settings: with cbl_human CBL

Variant	effect of a mutation on the interaction
R361C	with no effect

Variants of: B1
Settings: with cblb_human CBLB

Variant	effect of a mutation on the interaction
R361C	with no effect

Variants of: B1
Settings: with ccnd1_human CCND1, P24385

Variant	effect of a mutation on the interaction
R361C	with no effect

Variants of: B1
Settings: with ccnd2_human CCND2, P30279
Chain of ccnd2_human CCND2, P30279 (P30279 whole entry): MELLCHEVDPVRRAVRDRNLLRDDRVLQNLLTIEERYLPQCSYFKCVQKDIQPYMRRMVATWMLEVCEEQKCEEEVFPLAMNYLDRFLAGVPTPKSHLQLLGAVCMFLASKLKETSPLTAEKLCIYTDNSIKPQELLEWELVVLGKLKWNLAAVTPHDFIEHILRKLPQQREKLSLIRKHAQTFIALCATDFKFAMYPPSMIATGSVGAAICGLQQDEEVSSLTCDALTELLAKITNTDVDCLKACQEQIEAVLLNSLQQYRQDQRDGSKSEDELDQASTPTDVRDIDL

Variant	effect of a mutation on the interaction
R361C	with no effect

Variants of: B1
Settings: with ccnd3_human CCND3, P30281

Variant	effect of a mutation on the interaction
R361C	with no effect

Variants of: B1
Settings: with cd44_human CD44, P16070

Variant	effect of a mutation on the interaction
R361C	with no effect

Variants of: B1
Settings: with cd79b_human CD79B

Variant	effect of a mutation on the interaction
R361C	with no effect

Variants of: B1
Settings: with cdk6_human CDK6, Q00534
Chain of cdk6_human CDK6, Q00534 (Q00534 whole entry): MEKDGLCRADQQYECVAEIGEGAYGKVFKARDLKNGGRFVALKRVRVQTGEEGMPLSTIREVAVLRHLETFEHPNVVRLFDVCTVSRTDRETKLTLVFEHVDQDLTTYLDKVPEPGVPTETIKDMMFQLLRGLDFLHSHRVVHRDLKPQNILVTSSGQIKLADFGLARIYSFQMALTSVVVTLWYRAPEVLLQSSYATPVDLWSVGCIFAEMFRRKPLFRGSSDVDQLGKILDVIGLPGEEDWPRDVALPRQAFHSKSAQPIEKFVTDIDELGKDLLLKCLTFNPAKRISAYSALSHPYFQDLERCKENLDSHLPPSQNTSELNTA

Variant	effect of a mutation on the interaction
R361C	with no effect

Variants of: B1
Settings: with cdn2b_human CDKN2B

Variant	effect of a mutation on the interaction
R361C	with no effect

Variants of: B1
Settings: with cdn2c_human CDKN2C

Variant	effect of a mutation on the interaction
R361C	with no effect

Variants of: B1
Settings: with cebpa_human CEBPA

Variant	effect of a mutation on the interaction
R361C	with no effect

Variants of: B1
Settings: with ch3l1_human CHI3L1, P36222

Variant	effect of a mutation on the interaction
R361C	with no effect

Variants of: B1
Settings: with ctna1_human CTNNA1, P35221

Variant	effect of a mutation on the interaction
R361C	with no effect

Variants of: B1
Settings: with ctnb1_human CTNNB1, P35222

Variant	effect of a mutation on the interaction
R361C	with no effect

Variants of: B1
Settings: with cul3_human CUL3, Q13618

Variant	effect of a mutation on the interaction
R361C	with no effect

Variants of: B1
Settings: with dicer_human DICER1, Q9UPY3

Variant	effect of a mutation on the interaction
R361C	with no effect

Variants of: B1
Settings: with duox2_human DUOX2, Q9NRD8

Variant	effect of a mutation on the interaction
R361C	with no effect

Variants of: B1
Settings: with e2f1_human E2F1, Q01094

Variant	effect of a mutation on the interaction
R361C	with no effect

Variants of: B1
Settings: with e2f2_human E2F2, Q14209

Variant	effect of a mutation on the interaction
R361C	with no effect

Variants of: B1
Settings: with e2f4_human E2F4, Q16254

Variant	effect of a mutation on the interaction
R361C	with no effect

Variants of: B1
Settings: with e2f5_human E2F5, Q15329

Variant	effect of a mutation on the interaction
R361C	with no effect

Variants of: B1
Settings: with if4e_human EIF4E

Variant	effect of a mutation on the interaction
R361C	with no effect

Variants of: B1
Settings: with epha7_human EPHA7, Q15375

Variant	effect of a mutation on the interaction
R361C	with no effect

Variants of: B1
Settings: with ephb1_human EPHB1, P54762

Variant	effect of a mutation on the interaction
R361C	with no effect

Variants of: B1
Settings: with erbb4_human ERBB4, Q15303

Variant	effect of a mutation on the interaction
R361C	with no effect

Variants of: B1
Settings: with esr1_human ESR1, P03372

Variant	effect of a mutation on the interaction
R361C	with no effect

Variants of: B1
Settings: with etv1_human ETV1, P50549

Variant	effect of a mutation on the interaction
R361C	with no effect

Variants of: B1
Settings: with fadd_human FADD

Variant	effect of a mutation on the interaction
R361C	with no effect

Variants of: B1
Settings: with facd2_human FANCD2, Q9BXW9

Variant	effect of a mutation on the interaction
R361C	with no effect

Variants of: B1
Settings: with fgf19_human FGF19, O95750
Chain of fgf19_human FGF19, O95750 (O95750 whole entry): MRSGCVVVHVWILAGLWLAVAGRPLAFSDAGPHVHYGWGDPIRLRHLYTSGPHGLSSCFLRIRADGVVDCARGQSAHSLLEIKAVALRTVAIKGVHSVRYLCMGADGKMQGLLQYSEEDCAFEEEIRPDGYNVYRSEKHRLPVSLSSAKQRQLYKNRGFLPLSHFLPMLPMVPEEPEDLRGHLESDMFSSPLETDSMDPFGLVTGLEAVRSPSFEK

Variant	effect of a mutation on the interaction
R361C	with no effect

Variants of: B1
Settings: with fgfr3_human FGFR3, P22607
Chain of fgfr3_human FGFR3, P22607 (P22607 whole entry, looked up): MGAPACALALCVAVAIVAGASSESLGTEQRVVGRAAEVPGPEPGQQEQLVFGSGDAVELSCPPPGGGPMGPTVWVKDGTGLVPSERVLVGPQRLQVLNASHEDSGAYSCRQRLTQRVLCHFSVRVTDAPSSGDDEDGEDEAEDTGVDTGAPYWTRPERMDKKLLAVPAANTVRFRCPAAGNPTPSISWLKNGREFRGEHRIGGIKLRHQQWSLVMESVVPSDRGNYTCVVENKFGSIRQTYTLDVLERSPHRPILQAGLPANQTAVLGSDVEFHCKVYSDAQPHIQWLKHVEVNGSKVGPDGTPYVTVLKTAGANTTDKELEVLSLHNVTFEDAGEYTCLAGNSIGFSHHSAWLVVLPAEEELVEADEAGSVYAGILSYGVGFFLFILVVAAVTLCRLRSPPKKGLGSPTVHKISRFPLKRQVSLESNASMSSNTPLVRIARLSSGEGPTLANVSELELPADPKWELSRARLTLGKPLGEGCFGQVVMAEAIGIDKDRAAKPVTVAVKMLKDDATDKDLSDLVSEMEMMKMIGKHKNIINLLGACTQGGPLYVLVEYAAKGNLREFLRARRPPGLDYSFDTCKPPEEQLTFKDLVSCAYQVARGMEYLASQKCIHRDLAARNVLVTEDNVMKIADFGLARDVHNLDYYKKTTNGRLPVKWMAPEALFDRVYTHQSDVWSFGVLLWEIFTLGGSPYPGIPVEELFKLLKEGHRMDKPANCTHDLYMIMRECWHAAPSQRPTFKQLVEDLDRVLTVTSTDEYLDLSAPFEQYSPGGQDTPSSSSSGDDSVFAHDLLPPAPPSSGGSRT

Variant	effect of a mutation on the interaction
R361C	with no effect

Variants of: B1
Settings: with fgfr4_human FGFR4, P22455

Variant	effect of a mutation on the interaction
R361C	with no effect

Variants of: B1
Settings: with foxo1_human FOXO1, Q12778
Chain of foxo1_human FOXO1, Q12778 (Q12778 whole entry): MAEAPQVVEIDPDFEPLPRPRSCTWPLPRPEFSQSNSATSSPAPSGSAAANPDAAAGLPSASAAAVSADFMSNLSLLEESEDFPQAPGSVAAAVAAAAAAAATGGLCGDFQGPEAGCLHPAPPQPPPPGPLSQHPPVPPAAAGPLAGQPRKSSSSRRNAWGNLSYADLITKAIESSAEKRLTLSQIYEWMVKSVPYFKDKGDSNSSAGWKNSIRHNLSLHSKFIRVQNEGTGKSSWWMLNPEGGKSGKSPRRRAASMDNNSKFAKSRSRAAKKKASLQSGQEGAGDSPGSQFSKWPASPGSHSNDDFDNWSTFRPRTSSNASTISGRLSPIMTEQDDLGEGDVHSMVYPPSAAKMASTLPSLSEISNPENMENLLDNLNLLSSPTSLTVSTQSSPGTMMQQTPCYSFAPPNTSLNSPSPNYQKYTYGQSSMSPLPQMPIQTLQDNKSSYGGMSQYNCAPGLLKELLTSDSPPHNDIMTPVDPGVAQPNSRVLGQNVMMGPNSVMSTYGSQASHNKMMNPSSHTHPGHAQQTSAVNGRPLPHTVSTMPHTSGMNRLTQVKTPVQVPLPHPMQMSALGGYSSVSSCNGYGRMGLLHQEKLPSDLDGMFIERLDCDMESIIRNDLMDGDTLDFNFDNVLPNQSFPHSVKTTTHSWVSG

Variant	effect of a mutation on the interaction
R361C	with no effect

Variants of: B1
Settings: with foxo3_human FOXO3, O43524

Variant	effect of a mutation on the interaction
R361C	with no effect

Variants of: B1
Settings: with gbra6_human GABRA6, Q16445

Variant	effect of a mutation on the interaction
R361C	with no effect

Variants of: B1
Settings: with gata2_human GATA2, P23769

Variant	effect of a mutation on the interaction
R361C	with no effect

Variants of: B1
Settings: with gata3_human GATA3, P23771

Variant	effect of a mutation on the interaction
R361C	with no effect

Variants of: B1
Settings: with gna11_human GNA11, P29992

Variant	effect of a mutation on the interaction
R361C	with no effect

Variants of: B1
Settings: with gnaq_human GNAQ

Variant	effect of a mutation on the interaction
R361C	with no effect
